In IntAct's records for PubMed 30814734:

B1: BTB/POZ domain-containing protein KCTD16 (Homo sapiens), Q68DU8 (parent)
chain: MALSGNCSRYYPREQGSAVPNSFPEVVELNVGGQVYFTRHSTLISIPHSLLWKMFSPKRDTANDLAKDSKGRFFIDRDGFLFRYILDYLRDRQVVLPDHFPEKGRLKREAEYFQLPDLVKLLTPDEIKQSPDEFCHSDFEDASQGSDTRICPPSSLLPADRKWGFITVGYRGSCTLGREGQADAKFRRVPRILVCGRISLAKEVFGETLNESRDPDRAPERYTSRFYLKFKHLERAFDMLSECGFHMVACNSSVTASFINQYTDDKIWSSYTEYVFYREPSRWSPSHCDCCCKNGKGDKEGESGTSCNDLSTSSCDSQSEASSPQETVICGPVTRQTNIQTLDRPIKKGPVQLIQQSEMRRKSDLLRTLTSGSRESNMSSKKKAVKEKLSIEEELEKCIQDFLKIKIPDRFPERKHPWQSELLRKYHL
partner: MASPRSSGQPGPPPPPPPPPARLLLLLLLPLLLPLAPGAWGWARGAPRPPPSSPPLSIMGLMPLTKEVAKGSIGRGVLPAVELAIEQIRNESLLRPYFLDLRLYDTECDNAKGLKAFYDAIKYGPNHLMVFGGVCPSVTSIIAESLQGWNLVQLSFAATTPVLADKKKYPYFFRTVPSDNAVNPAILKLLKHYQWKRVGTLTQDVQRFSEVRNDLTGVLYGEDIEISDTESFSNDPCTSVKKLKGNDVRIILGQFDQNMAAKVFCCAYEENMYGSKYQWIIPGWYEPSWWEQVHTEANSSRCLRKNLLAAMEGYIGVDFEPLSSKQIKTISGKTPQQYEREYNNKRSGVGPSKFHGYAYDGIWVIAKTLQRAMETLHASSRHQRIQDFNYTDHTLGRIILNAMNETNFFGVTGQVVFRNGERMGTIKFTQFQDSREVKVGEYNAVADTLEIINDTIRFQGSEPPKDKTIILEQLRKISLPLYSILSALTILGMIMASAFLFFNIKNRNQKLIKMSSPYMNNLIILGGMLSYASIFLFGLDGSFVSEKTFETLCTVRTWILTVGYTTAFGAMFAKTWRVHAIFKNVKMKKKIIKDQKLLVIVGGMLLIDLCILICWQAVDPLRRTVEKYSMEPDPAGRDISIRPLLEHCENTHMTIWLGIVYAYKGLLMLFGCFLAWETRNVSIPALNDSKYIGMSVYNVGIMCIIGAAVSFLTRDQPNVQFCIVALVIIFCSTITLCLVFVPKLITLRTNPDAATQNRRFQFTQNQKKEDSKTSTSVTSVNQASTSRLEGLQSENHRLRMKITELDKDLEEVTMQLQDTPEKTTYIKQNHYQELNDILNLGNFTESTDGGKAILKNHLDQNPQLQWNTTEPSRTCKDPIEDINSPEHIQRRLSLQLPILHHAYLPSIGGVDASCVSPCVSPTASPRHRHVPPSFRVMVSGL

Variants of: B1
Conditions: with gabr2_human GABBR2, O75899

effect of a mutation on the interaction	Variant
disrupting interaction strength	F80A
